Measurements published in article PMC8008698.

Target: SARS 2-Helix (single-chain fusion core of SARS-CoV spike protein: HR1, 22-amino acid linker, HR2) (SARS coronavirus GZ02)
Assay: crystal structure

Question: With “SARS 2-Helix (single-chain fusion core of SARS-CoV spike protein: HR1, 22-amino acid linker, HR2) (domain or fragment)” as the substance, how does the stoichiometry N read?
Answer: 3
